Here are results for 3 molecules from paper PMC3678999, “A Structural Basis for IκB Kinase 2 Activation Via Oligomerization-Dependent Trans Auto-Phosphorylation” (PLoS Biology, 2013).

In data set [1] the target is T1, His-tagged full-length human IKK2 (human), O14920.
T1 chain: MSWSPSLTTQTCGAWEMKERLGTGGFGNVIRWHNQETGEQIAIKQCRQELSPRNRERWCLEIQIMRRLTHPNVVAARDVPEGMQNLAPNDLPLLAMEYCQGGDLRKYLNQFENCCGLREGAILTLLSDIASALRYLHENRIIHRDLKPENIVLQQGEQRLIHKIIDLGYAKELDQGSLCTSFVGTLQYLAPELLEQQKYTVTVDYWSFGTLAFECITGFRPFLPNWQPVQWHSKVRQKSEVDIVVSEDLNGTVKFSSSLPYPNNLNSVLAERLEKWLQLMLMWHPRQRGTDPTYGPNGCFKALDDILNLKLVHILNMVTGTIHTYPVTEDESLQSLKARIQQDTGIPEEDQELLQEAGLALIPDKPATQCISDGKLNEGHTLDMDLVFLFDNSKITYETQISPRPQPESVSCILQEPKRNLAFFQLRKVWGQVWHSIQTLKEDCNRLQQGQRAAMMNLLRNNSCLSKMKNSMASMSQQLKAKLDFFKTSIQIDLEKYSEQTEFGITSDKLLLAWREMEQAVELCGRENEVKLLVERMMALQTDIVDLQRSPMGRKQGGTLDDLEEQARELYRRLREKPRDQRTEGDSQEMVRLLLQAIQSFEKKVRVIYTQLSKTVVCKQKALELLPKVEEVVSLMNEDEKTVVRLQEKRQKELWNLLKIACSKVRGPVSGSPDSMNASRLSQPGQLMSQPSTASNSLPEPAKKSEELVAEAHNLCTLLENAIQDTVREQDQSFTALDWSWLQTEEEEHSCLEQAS
In words: SEC-MALS; SEC-MALLS; protein pretreated with 1 mM ATP, concentrated as for crystallization; Zenix SEC-300 column, 20 mM Tris-Cl pH 8, 150 mM NaCl, 5% glycerol. As to conditions: remark: other sources report otherwise. For orientation: Size exclusion chromatography separates by hydrodynamic size, large species first.

In data set [2] the target is T1, His-tagged full-length human IKK2 …. In words: AUC; sedimentation velocity, ~0.5 mg/ml, 30,000 rpm, 20°C, 15 h; Sedfit. As to conditions: remark: other sources report otherwise.
Data set [3] deals with the molecule itself. In words: crystal structure; tetragonal crystal form, space group P4(1)22, six protomers in the asymmetric unit; protein mixed with inhibitor MLN120B 1:2; sodium malonate pH 6.5, 18°C.
Data set [4] deals with the molecule itself. In words: crystal structure; hexagonal crystal form, data to 7 Å; molecular replacement with the hIKK2EE(11–669) model and rigid body refinement, called a probable solution; protein mixed with inhibitor MLN120B.

Several values for one entry are separate records, joined by “and”; a condition that tells them apart may be missing. Equal entries are not always repeated.

B1: His-tagged full-length human IKK2, O14920 1-756 (enzyme)
chain: MSWSPSLTTQTCGAWEMKERLGTGGFGNVIRWHNQETGEQIAIKQCRQELSPRNRERWCLEIQIMRRLTHPNVVAARDVPEGMQNLAPNDLPLLAMEYCQGGDLRKYLNQFENCCGLREGAILTLLSDIASALRYLHENRIIHRDLKPENIVLQQGEQRLIHKIIDLGYAKELDQGSLCTSFVGTLQYLAPELLEQQKYTVTVDYWSFGTLAFECITGFRPFLPNWQPVQWHSKVRQKSEVDIVVSEDLNGTVKFSSSLPYPNNLNSVLAERLEKWLQLMLMWHPRQRGTDPTYGPNGCFKALDDILNLKLVHILNMVTGTIHTYPVTEDESLQSLKARIQQDTGIPEEDQELLQEAGLALIPDKPATQCISDGKLNEGHTLDMDLVFLFDNSKITYETQISPRPQPESVSCILQEPKRNLAFFQLRKVWGQVWHSIQTLKEDCNRLQQGQRAAMMNLLRNNSCLSKMKNSMASMSQQLKAKLDFFKTSIQIDLEKYSEQTEFGITSDKLLLAWREMEQAVELCGRENEVKLLVERMMALQTDIVDLQRSPMGRKQGGTLDDLEEQARELYRRLREKPRDQRTEGDSQEMVRLLLQAIQSFEKKVRVIYTQLSKTVVCKQKALELLPKVEEVVSLMNEDEKTVVRLQEKRQKELWNLLKIACSKVRGPVSGSPDSMNASRLSQPGQLMSQPSTASNSLPEPAKKSEELVAEAHNLCTLLENAIQDTVREQDQSFTALDWSWLQTEEEEHSCLEQAS
Regarding B1, the stoichiometry N in data set [1] was 4; in data set [2], 4 and 6 and 8.

B2: human IKK2 (amino acids 11–669), constitutively active S177E/S181E (domain or fragment, UniProt O14920 11-669, looked up)
chain: TCGAWEMKERLGTGGFGNVIRWHNQETGEQIAIKQCRQELSPRNRERWCLEIQIMRRLTHPNVVAARDVPEGMQNLAPNDLPLLAMEYCQGGDLRKYLNQFENCCGLREGAILTLLSDIASALRYLHENRIIHRDLKPENIVLQQGEQRLIHKIIDLGYAKELDQGELCTEFVGTLQYLAPELLEQQKYTVTVDYWSFGTLAFECITGFRPFLPNWQPVQWHSKVRQKSEVDIVVSEDLNGTVKFSSSLPYPNNLNSVLAERLEKWLQLMLMWHPRQRGTDPTYGPNGCFKALDDILNLKLVHILNMVTGTIHTYPVTEDESLQSLKARIQQDTGIPEEDQELLQEAGLALIPDKPATQCISDGKLNEGHTLDMDLVFLFDNSKITYETQISPRPQPESVSCILQEPKRNLAFFQLRKVWGQVWHSIQTLKEDCNRLQQGQRAAMMNLLRNNSCLSKMKNSMASMSQQLKAKLDFFKTSIQIDLEKYSEQTEFGITSDKLLLAWREMEQAVELCGRENEVKLLVERMMALQTDIVDLQRSPMGRKQGGTLDDLEEQARELYRRLREKPRDQRTEGDSQEMVRLLLQAIQSFEKKVRVIYTQLSKTVVCKQKALELLPKVEEVVSLMNEDEKTVVRLQEKRQKELWNLLKIACSKVRGPV
notes: human IκB kinase 2 (IKK2/IKKβ), amino acids 11–669, with S177E/S181E; Cloned in pFastBacHTb (N-terminal hexa-histidine tag, TEV site); Incubated with ATP/MgCl2 before the size exclusion column; also called IKK2(11–669)EE; hIKK2EE(11–669); source: Sf9 (baculovirus), purified (Ni-NTA, TEV, Superdex200); not shown: His6, N-terminal, cleaved
For the molecule B2, the “stoichiometry N” value in data set [3] is 2 and 4.

B3: human IKK2 (amino acids 1–700), constitutively active S177E/S181E (domain or fragment, UniProt O14920 1-700, looked up)
chain: MSWSPSLTTQTCGAWEMKERLGTGGFGNVIRWHNQETGEQIAIKQCRQELSPRNRERWCLEIQIMRRLTHPNVVAARDVPEGMQNLAPNDLPLLAMEYCQGGDLRKYLNQFENCCGLREGAILTLLSDIASALRYLHENRIIHRDLKPENIVLQQGEQRLIHKIIDLGYAKELDQGELCTEFVGTLQYLAPELLEQQKYTVTVDYWSFGTLAFECITGFRPFLPNWQPVQWHSKVRQKSEVDIVVSEDLNGTVKFSSSLPYPNNLNSVLAERLEKWLQLMLMWHPRQRGTDPTYGPNGCFKALDDILNLKLVHILNMVTGTIHTYPVTEDESLQSLKARIQQDTGIPEEDQELLQEAGLALIPDKPATQCISDGKLNEGHTLDMDLVFLFDNSKITYETQISPRPQPESVSCILQEPKRNLAFFQLRKVWGQVWHSIQTLKEDCNRLQQGQRAAMMNLLRNNSCLSKMKNSMASMSQQLKAKLDFFKTSIQIDLEKYSEQTEFGITSDKLLLAWREMEQAVELCGRENEVKLLVERMMALQTDIVDLQRSPMGRKQGGTLDDLEEQARELYRRLREKPRDQRTEGDSQEMVRLLLQAIQSFEKKVRVIYTQLSKTVVCKQKALELLPKVEEVVSLMNEDEKTVVRLQEKRQKELWNLLKIACSKVRGPVSGSPDSMNASRLSQPGQLMSQPSTASNSLPE
notes: human IκB kinase 2 (IKK2/IKKβ), amino acids 1–700 (amino acid 701 mutated to a stop codon), with S177E/S181E; Hexagonal crystal form, data to 7 Å; no PDB entry is named for it; also called hIKK2EE 1–700; hIKK2EE(1–700); source: Sf9 (baculovirus), purified (Ni-NTA, TEV, Superdex200); not shown: His6, N-terminal, cleaved
Regarding B3, the “stoichiometry N” value in data set [4] came to 2.

For orientation: stoichiometry N means the number of molecules, sites or subunits per partner or assembly.
